Test results taken from US20260265385A1 (ANAPTYSBIO, published 2026).

T1: recombinant cynomolgus IL-2Rβ (extracellular domain, Ala1-Thr215) (cynomolgus, UniProt Q38J85 27-240)
T1 construct: extracellular domain; Analyte in SPR; also called cynomolgus LL-2Rβ; Cyno IL-2RB
T1 sequence (looked up): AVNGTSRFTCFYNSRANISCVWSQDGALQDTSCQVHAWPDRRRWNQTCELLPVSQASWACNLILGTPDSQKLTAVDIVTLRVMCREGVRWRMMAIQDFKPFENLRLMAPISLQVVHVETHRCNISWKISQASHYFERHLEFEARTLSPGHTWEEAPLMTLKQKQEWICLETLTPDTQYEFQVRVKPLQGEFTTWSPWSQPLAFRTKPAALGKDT

T2: recombinant human IL-2Rβ (extracellular domain, Ala1-Thr215) (human, UniProt P14784 27-240)
T2 construct: extracellular domain; Analyte in SPR; Ala1-Thr215 is counted on the mature protein; also called human LL-2Rβ; Human IL-2RB
T2 sequence (looked up): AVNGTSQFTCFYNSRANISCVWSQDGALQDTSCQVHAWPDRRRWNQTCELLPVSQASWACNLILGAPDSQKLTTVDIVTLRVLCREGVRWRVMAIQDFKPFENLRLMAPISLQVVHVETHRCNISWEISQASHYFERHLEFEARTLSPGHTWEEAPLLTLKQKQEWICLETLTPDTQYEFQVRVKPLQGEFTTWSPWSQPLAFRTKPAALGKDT


Key:
[1] = biological target: T1, recombinant cynomolgus IL-2Rβ …; experiment: SPR, antibody captured on Protein A chip
Description: (§1) Surface plasmon resonance (SPR) was used to determine the binding affinities. The M6-1625 and M10-1275 antibodies were captured onto a Cytiva Protein A Chip for 60 seconds at 0.5 μg/mL for 60 seconds. The antibodies were exposed to recombinant human LL-2Rβ or cynomolgus LL-2Rβ (corresponding to residues Ala1-Thr215 of the extracellular domains excluding the signal peptide) at typical concentrations ranging from 0.4 nM to 11 nM with typical 300 second associations and 1200 second dissociations using a BiacoreS200 instrument. Sensorgrams were fit globally using a 1:1 binding model in the Biacore T200 Evaluation Software to calculate on- and off-rates and KD values.

[2] = biological target: T2, recombinant human IL-2Rβ (extracellular …); experiment: SPR, antibody captured on Protein A chip
Description: as §1

Binder	Kd [1] [nM]	Kd [2] [nM]
APE14970 (antibody, V domains shown, M10-1275 series) VH: EVQLVQSGAEVKKPGATVKISCKVSGFNFKDSLMHWVQQAPGKGLEWMGWIDSENGETEYAPGFQDRVTITADTSTDTAYMELSSLRSEDTAVYYCARGGPWFLSYWGQGTTVTVSS VL: EIVMTQSPATLSVSPGERATLSCRASQIISNNLHWYQQKPGQAPRLLIIYGLQSISGIPARFSGSRSGTEFTLTISSLQSEDFAVYFCQQSNNWPWTFGQGTKLEIKR	0.014	0.074
APE15036 (antibody, V domains shown, M10-1275 series) VH: EVQLVQSGAEVKKPGATVKISCKVSGFNFKDSLVHWVQQAPGKGLEWMGWIDSENGETEYAPGFQDRVTITADTSTDTAYMELSSLRSEDTAVYYCARGGPWFLSYWGQGTTVTVSS VL: EIVMTQSPATLSVSPGERATLSCRASQIISNNLHWYQQKPGQAPRLLIIYGLQSISGIPARFSGSRSGTEFTLTISSLQSEDFAVYFCQQSNNWPWTFGQGTKLEIKR	0.0195	0.165
APE15034 (antibody, V domains shown, M10-1275 series) VH: EVQLVQSGAEVKKPGATVKISCKVSGFNFKDSLMHWVQQAPGKGLEWMGWIDSETGETEYAPGFQDRVTITADTSTDTAYMELSSLRSEDTAVYYCARGGPWFLSYWGQGTTVTVSS VL: EIVMTQSPATLSVSPGERATLSCRASQIISNNLHWYQQKPGQAPRLLIIYGLQSISGIPARFSGSRSGTEFTLTISSLQSEDFAVYFCQQSNNWPWTFGQGTKLEIKR	0.0222	0.19
APE15056 (antibody, V domains shown, M10-1275 series) VH: EVQLVQSGAEVKKPGATVKISCKVSGFNFKDSLMHWVQQAPGKGLEWMGWIDSENGETEYAPGFQDRVTITADTSTDTAYMELSSLRSEDTAVYYCARGGPWFLSYWGQGTTVTVSS VL: EIVMTQSPATLSVSPGERATLSCRASQIISNNLHWYQQKPGQAPRLLIIYGLQSISGIPARFSGSRSGTEFTLTISSLQSEDFAVYFCQQSNNFPWTFGQGTKLEIKR	0.0198	0.122
APE15053 (antibody, V domains shown, M10-1275 series) VH: EVQLVQSGAEVKKPGATVKISCKVSGFNFKDSLMHWVQQAPGKGLEWMGWIDSENGETEYAPGFQDRVTITADTSTDTAYMELSSLRSEDTAVYYCARGGPWFLSYWGQGTTVTVSS VL: EIVMTQSPATLSVSPGERATLSCRASQIISNNLHWYQQKPGQAPRLLIIYGLQSISGIPARFSGSRSGTEFTLTISSLQSEDFAVYFCQQSNNWPYTFGQGTKLEIKR	0.0399	0.0915
APE14971 (antibody, V domains shown, M10-1275 series) VH: EVQLVQSGAEVKKPGATVKISCKVSGFNFKDSLMHWVQQAPGKGLEWMGWIDSENGETEYAPGFQDRVTITADTSTDTAYMELSSLRSEDTAVYYCARGGPWFLSYWGQGTTVTVSS VL: EIVMTQSPATLSVSPGERATLSCRASQIISNNLHWYQQKPGQAPRLLIYYGLQSISGIPARFSGSGSGTEFTLTISSLQSEDFAVYYCQQSNNWPWTFGQGTKLEIKR	0.026	0.278
APE15038 (antibody, V domains shown, M10-1275 series) VH: EVQLVQSGAEVKKPGATVKISCKVSGFNFKDSLIHWVQQAPGKGLEWMGWIDSENGETEYAPGFQDRVTITADTSTDTAYMELSSLRSEDTAVYYCARGGPWFLSYWGQGTTVTVSS VL: EIVMTQSPATLSVSPGERATLSCRASQIISNNLHWYQQKPGQAPRLLIIYGLQSISGIPARFSGSRSGTEFTLTISSLQSEDFAVYFCQQSNNWPWTFGQGTKLEIKR	0.0185	0.12
APE14969 (antibody, V domains shown, M10-1275 series) VH: EVQLVQSGAEVKKPGATVKISCKVSGFNFKDSLMHWVQQAPGKGLEWMGWIDSENGETEYAPGFQDRVTITADTSTDTAYMELSSLRSEDTAVYYCARGGPWFLSYWGQGTTVTVSS VL: EIVMTQSPATLSVSPGERATLSCRASQIISNNLHWYQQKPGQAPRLLIIYGLQSISGIPARFSGSGSGTEFTLTISSLQSEDFAVYFCQQSNNWPWTFGQGTKLEIKR	0.018	0.187
APE15031 (antibody, V domains shown, M10-1275 series) VH: EVQLVQSGAEVKKPGATVKISCKVSGFNFKDSLMHWVQQAPGKGLEWMGWIDSEHGETEYAPGFQDRVTITADTSTDTAYMELSSLRSEDTAVYYCARGGPWFLSYWGQGTTVTVSS VL: EIVMTQSPATLSVSPGERATLSCRASQIISNNLHWYQQKPGQAPRLLIIYGLQSISGIPARFSGSRSGTEFTLTISSLQSEDFAVYFCQQSNNWPWTFGQGTKLEIKR	0.0189	0.108
APE15057 (antibody, V domains shown, M10-1275 series) VH: EVQLVQSGAEVKKPGATVKISCKVSGFNFKDSLMHWVQQAPGKGLEWMGWIDSENGETEYAPGFQDRVTITADTSTDTAYMELSSLRSEDTAVYYCARGGPWFLSYWGQGTTVTVSS VL: EIVMTQSPATLSVSPGERATLSCRASQIISNNLHWYQQKPGQAPRLLIYYGLQSISGIPARFSGSRSGTEFTLTISSLQSEDFAVYYCQQSNNWPWTFGQGTKLEIKR	0.024	0.144
APE15037 (antibody, V domains shown, M10-1275 series) VH: EVQLVQSGAEVKKPGATVKISCKVSGFNFKDSLLHWVQQAPGKGLEWMGWIDSENGETEYAPGFQDRVTITADTSTDTAYMELSSLRSEDTAVYYCARGGPWFLSYWGQGTTVTVSS VL: EIVMTQSPATLSVSPGERATLSCRASQIISNNLHWYQQKPGQAPRLLIIYGLQSISGIPARFSGSRSGTEFTLTISSLQSEDFAVYFCQQSNNWPWTFGQGTKLEIKR	0.0171	0.124
APE15033 (antibody, V domains shown, M10-1275 series) VH: EVQLVQSGAEVKKPGATVKISCKVSGFNFKDSLMHWVQQAPGKGLEWMGWIDSEQGETEYAPGFQDRVTITADTSTDTAYMELSSLRSEDTAVYYCARGGPWFLSYWGQGTTVTVSS VL: EIVMTQSPATLSVSPGERATLSCRASQIISNNLHWYQQKPGQAPRLLIIYGLQSISGIPARFSGSRSGTEFTLTISSLQSEDFAVYFCQQSNNWPWTFGQGTKLEIKR	0.0128	0.106
APE15055 (antibody, V domains shown, M10-1275 series) VH: EVQLVQSGAEVKKPGATVKISCKVSGFNFKDSLMHWVQQAPGKGLEWMGWIDSENGETEYAPGFQDRVTITADTSTDTAYMELSSLRSEDTAVYYCARGGPWFLSYWGQGTTVTVSS VL: EIVMTQSPATLSVSPGERATLSCRASQIISNNLHWYQQKPGQAPRLLIIYGLQSISGIPARFSGSRSGTEFTLTISSLQSEDFAVYFCQQSNNYPWTFGQGTKLEIKR	0.0838	0.369
APE15059 (antibody, V domains shown, M10-1275 series) VH: EVQLVQSGAEVKKPGATVKISCKVSGFNFKDSLMHWVQQAPGKGLEWMGWIDSENGETEYAPGFQDRVTITADTSTDTAYMELSSLRSEDTAVYYCARGGPWFLSYWGQGTTVTVSS VL: EIVMTQSPATLSVSPGERATLSCRASQIISNNLHWYQQKPGQAPRLLIIYGLQSISGIPARFSGSRSGTEFTLTISSLQSEDFAVYYCQQSNNWPWTFGQGTKLEIKR	0.0159	0.0697
APE15058 (antibody, V domains shown, M10-1275 series) VH: EVQLVQSGAEVKKPGATVKISCKVSGFNFKDSLMHWVQQAPGKGLEWMGWIDSENGETEYAPGFQDRVTITADTSTDTAYMELSSLRSEDTAVYYCARGGPWFLSYWGQGTTVTVSS VL: EIVMTQSPATLSVSPGERATLSCRASQIISNNLHWYQQKPGQAPRLLIYYGLQSISGIPARFSGSRSGTEFTLTISSLQSEDFAVYFCQQSNNWPWTFGQGTKLEIKR	0.0223	0.154
APE15054 (antibody, V domains shown, M10-1275 series) VH: EVQLVQSGAEVKKPGATVKISCKVSGFNFKDSLMHWVQQAPGKGLEWMGWIDSENGETEYAPGFQDRVTITADTSTDTAYMELSSLRSEDTAVYYCARGGPWFLSYWGQGTTVTVSS VL: EIVMTQSPATLSVSPGERATLSCRASQIISNNLHWYQQKPGQAPRLLIIYGLQSISGIPARFSGSRSGTEFTLTISSLQSEDFAVYFCQQSNNWPFTFGQGTKLEIKR	0.108	0.429
APE15035 (antibody, V domains shown, M10-1275 series) VH: EVQLVQSGAEVKKPGATVKISCKVSGFNFKDSLMHWVQQAPGKGLEWMGWIDSESGETEYAPGFQDRVTITADTSTDTAYMELSSLRSEDTAVYYCARGGPWFLSYWGQGTTVTVSS VL: EIVMTQSPATLSVSPGERATLSCRASQIISNNLHWYQQKPGQAPRLLIIYGLQSISGIPARFSGSRSGTEFTLTISSLQSEDFAVYFCQQSNNWPWTFGQGTKLEIKR	0.0194	0.147
APE15032 (antibody, V domains shown, M10-1275 series) VH: EVQLVQSGAEVKKPGATVKISCKVSGFNFKDSLMHWVQQAPGKGLEWMGWIDSEAGETEYAPGFQDRVTITADTSTDTAYMELSSLRSEDTAVYYCARGGPWFLSYWGQGTTVTVSS VL: EIVMTQSPATLSVSPGERATLSCRASQIISNNLHWYQQKPGQAPRLLIIYGLQSISGIPARFSGSRSGTEFTLTISSLQSEDFAVYFCQQSNNWPWTFGQGTKLEIKR	0.0124	0.0738
